Laboratory results published in the RNAGym collection of RNA variant scans (doi:10.7554/elife.80360).

B1: Hammerhead Ribozyme (parent)
chain: ACCGGAUGUGCUUUCCGGUCUGAUGAGUCCGUGAGGACGAAACAG

Variants of: B1
Assay: self-cleavage, relative activity (ratio to wild type); higher = more cleavage; co-transcriptional

Variant | self-cleavage
C2U C38G | 0.976
G27C | 0.843
C3U U21C | 0.731
U7C U21G | 0.449
C30G G33U | 1.02
G22U G35U | 0.366
G22U G35A | 0.335
A6U C20U | 0.454
G17C U28G | 0.395
G4U A41U | 0.308
A23C U28A | 0.262
G4U G39C | 0.266
G4U G39A | 0.263
G10C A44C | 0.61
C15U U24C | 0.812
G27C C38G | 0.426
C16A C20G | 0.316
U21G A44U | 0.285
U24C U28G | 0.99
U28A G31U | 0.92
G10U G31A | 0.989
C29G A44U | 0.398
U7A C16A | 1.29
G18C A40C | 0.389

Variant | self-cleavage
C20G G25A | 0.314
U21G G22A | 0.324
C3A A34G | 0.515
A23C A26U | 0.33
C16G U28A | 0.407
C16G U19G | 0.33
U32C C38U | 0.726
A26U G35U | 0.491
G4A G35U | 0.382
U9A A44G | 1.46
C2G A34C | 0.352
G8A G10C | 1.46
U7G C20U | 0.447
A1C U21A | 0.343
A1U A6G | 0.459
G10C G25A | 0.368
G17U A26U | 0.527
G17U A26G | 0.33
A34U A40C | 0.404
G33C C38G | 0.567
G31A G36C | 0.671
C11U G39C | 0.389
U9C G31C | 1
A40G A41C | 0.341

Variant | self-cleavage
U12A G39C | 0.338
U28C G36U | 0.591
A26C G31C | 0.411
U7G U32C | 1.03
A6G G25U | 0.194
U12A G27C | 0.663
G17C G31U | 0.713
U28G A41C | 0.348
G31A A40C | 0.642
C11A A41G | 0.364
A1U U7G | 0.603
U19G A40U | 0.323
C15A C43U | 0.415
U21A G45U | 0.432
C3A G8C | 0.467
U24C A42C | 0.316
A6G A37U | 0.44
U13G G27U | 0.375
U14C C38U | 1.15
C15G G17U | 0.321
C3A G17C | 0.708
A42C A44G | 1.06
C11U U12C | 1.28
G18U A40G | 0.357

Variant | self-cleavage
G17C G45A | 0.366
G17C G45U | 0.394
G10U G22A | 0.354
G25A A26U | 0.341
C11G C38U | 1.09
G27U G33U | 0.535
C29G A34U | 0.748
U12A C43U | 0.392
G17U G36U | 0.46
A34G C38U | 1.13
C2G G33A | 0.463
G8U G17C | 0.509
U7C A26G | 0.305
U13A U14C | 0.548
C3G C38A | 0.279
U12A G18C | 0.565
A23C U24A | 0.397
G4C A40G | 0.243
A1C G4C | 0.472
G4U A40G | 0.303
U9A G39C | 0.288
U9A G39A | 0.307
G22C G39U | 0.286
U21A G25A | 0.334

Variant | self-cleavage
C11A C43A | 0.357
G25C A34G | 0.332
G5A U12G | 1.31
U13A U19C | 0.898
A1U G33A | 0.651
C38U G39A | 0.363
U21A C30U | 0.57
A1U A26U | 0.383
U28C C30A | 0.826
U12G A23G | 0.407
G4A G36C | 0.343
G17A C20G | 0.367
G5A G27A | 0.776
C15U A34U | 0.843
U12A G17C | 0.423
G5A U13C | 1.6
G18U C20G | 0.382
A26C A42U | 0.393
C15A G25A | 0.341
G8A U24A | 1.11
C29U A41C | 0.319
G31C G33C | 0.969
U7A A34G | 1.07
G27A C29A | 0.42

Variant | self-cleavage
G10U G33C | 1.1
G8U G18A | 0.684
C20G G35C | 0.361
G10A G22U | 0.319
C15A A44C | 0.404
A1U U21C | 0.379
G39U C43U | 0.371
U13C A42C | 0.313
U9G C30G | 0.898
A37C G39A | 0.295
C2A U24C | 0.733
A1U G18U | 0.475
C30G G35U | 1.04
A23G U32G | 0.366
U7A U24G | 0.882
U21G G45A | 0.4
A6G C29U | 0.89
C11A U12A | 0.977
C11G A23G | 0.282
U7C A34G | 0.863
G10U C38G | 0.848
G5C C20U | 0.358
A1U C11A | 1.01
C16G C20G | 0.317

Variant | self-cleavage
C11U C38G | 0.611
G10A C15U | 0.919
U9G C15G | 0.729
A23C A34C | 0.374
A6C A26G | 0.147
G8A C20A | 0.501
C3A G5C | 0.319
U9G U28C | 0.673
U13C G18U | 0.933
U28A C30U | 0.562
G8U A40G | 0.376
G8C G31U | 0.679
U12G C43U | 0.43
G4C G33A | 0.879
U12G G36U | 0.471
A1C U14C | 0.331
A23C G25A | 0.331
C2A A41U | 0.346
U7G U12A | 1.24
U7G U13C | 1.45
A23G A26U | 0.3
A42U G45A | 0.374
U9G C29A | 0.655
